For one substance, binding signal (relative to WT) results are on record in publication PMC6826206.

The series has as its system hcGAScat-WT (human). In words: fluorescence anisotropy. The conditions noted are these: reference; EMSA: 25 mM Tris-HCl pH 7.5, 1 mM DTT, 100 ug/ml BSA, 1 mM MgCl2, 45 mM KCl, 37 C 10 min, 7% PAGE in TAE at 4 C; FA: 5-10 nM FAM-dsDNA, Hill fit, buffer not …. Background: Fluorescence polarisation rises when a labelled molecule tumbles more slowly, as on binding a larger partner.

For the substance dsDNA24, the binding signal (relative to WT) turned out to be 1.
